# Experimental data published in PMC11656211.
# Ends that are not written are not given here.
# B1: HiLyte Fluor 488-labeled GK-1 (peptide)
# peptide: GYYYPSDPNTFYAPPYSA
# modifications: also: HiLyte Fluor 488 label, position not given here
# Target: TLR4/MD2 complex on HEK293-hTLR4-MD2-CD14 cells (human) (UniProt O00206)
binder,measurement,value
B1,"uptake of GK-1-HF488 (MFI by flow cytometry after trypsin treatment), HEK293-TLR4 cells against HEK293-null cells, 1 h at 4 °C, 5 to 50 uM",5 fold
same,"uptake of GK-1-HF488 (MFI by flow cytometry after trypsin treatment), HEK293-TLR4 cells against HEK293-null cells, 1 h at 37 °C, 5 to 50 uM",< 30 fold
